The record followed here is the supplement of paper PMC5998384.

Data set [1] concerns HeLa Kyoto. The data set is described as follows: solubility in G1/S (NP-40 vs SDS abundance) (log2 ratio); higher = more soluble. The note with it: cell cycle stage: G1/S.
Data set [2] concerns HeLa Kyoto. Kind of data set: melting temperature (median over replicates), in situ; higher = more thermally stable.
Data set [3] concerns HeLa Kyoto. Kind of data set: solubility change mitosis vs G1/S (difference of NP-40 vs SDS log2 ratios) (log2 ratio difference); higher = more soluble in mitosis.
The subject of data set [4] is HeLa Kyoto. The data set is described as follows: thermal stability score vs G1/S (z-score of summed log2 fold changes over temperatures); higher = more thermally stable than in G1/S.
Setting [5] is: cell cycle stage: early G1 (4.5 h after nocodazole release).
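Wherever melting temperature (median over replicates), in situ is given: HeLa Kyoto cells synchronized by double thymidine or nocodazole block, proteins quantified by TMT10plex mass spectrometry, three independent biological replicates.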
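Wherever solubility change mitosis vs G1/S (difference of NP-40 vs SDS log2 ratios) is given: synchronized HeLa Kyoto cells (double thymidine block for G1/S, nocodazole release for mitosis), protein amounts in NP-40 versus SDS lysates quantified by mass spectrometry, three biological replicates.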
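Wherever solubility in G1/S (NP-40 vs SDS abundance) is given: HeLa Kyoto cells arrested at G1/S by double thymidine block, proteins quantified by TMT10plex mass spectrometry in mild NP-40 versus SDS extracts, three biological replicates.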
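Wherever thermal stability score vs G1/S (z-score of summed log2 fold changes over temperatures) is given: synchronized HeLa Kyoto cells, proteins quantified by TMT10plex mass spectrometry, three biological replicates, mitosis taken 0.5 h after nocodazole release, G1/S directly after double thymidine block.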

“MRPPGFLSRAPSLNRAERGIWSCSMDQREPLPPAPAENEMKYDTNNNEEEEGEQFDFDSGDEIPEADRQAPSAPETGGAGASEAPAPTGGEDGAGAETTPVAEPTKLVLPMKVNPYSVIDITPFQEDQPPTPVPSAEEENVGLHVPCGYLVPVPCGYAVPSNLPLLLPAYSSPVIICATSLDEEAETPEVTEDRQPNSLSSEEPPTSEDQVGREDSALARWAADPANTAWMENPEEAIYDDVPRENSDSEPDEMIYDDVENGDEGGNSSLEYGWSSSEFESYEEQSDSECKNGIPRSFLRSNHKKQLSHDLTRLKEHYEKKMRDLMASTVGVVEIQQLRQKHELKMQKLVKAAKDGTKDGLERTRAAVKRGRSFIRTKSLIAQDHRSSLEEEQNLFIDVDCKHPEAILTPMPEGLSQQQVVRRYILGSVVDSEKNYVDALKRILEQYEKPLSEMEPKVLSERKLKTVFYRVKEILQCHSLFQIALASRVSEWDSVEMIGDVFVASFSKSMVLDAYSEYVNNFSTAVAVLKKTCATKPAFLEFLKQEQEASPDRTTLYSLMMKPIQRFPQFILLLQDMLKNTSKGHPDRLPLQMALTELETLAEKLNERKRDADQRCEVKQIAKAINERYLNKLLSSGSRYLIRSDDMIETVYNDRGEIVKTKERRVFMLNDVLMCATVSSRPSHDSRVMSSQRYLLKWSVPLGHVDAIEYGSSAGTGEHSRHLAVHPPESLAVVANAKPNKVYMGPGQLYQDLQNLLHDLNVIGQITQLIGNLKGNYQNLNQSVAHDWTSGLQRLILKKEDEIRAADCCRIQLQLPGKQDKSGRPTFFTAVFNTFTPAIKESWVNSLQMAKLALEEENHMGWFCVEDDGNHIKKEKHPLLVGHMPVMVAKQQEFKIECAAYNPEPYLNNESQPDSFSTAHGFLWIGSCTHQMGQIAIVSFQNSTPKVIECFNVESRILCMLYVPVEEKRREPGAPPDPETPAVRASDVPTICVGTEEGSISIYKSSQGSKKVRLQHFFTPEKSTVMSLACTSQSLYAGLVNGAVASYARAPDGSWDSEPQKVIKLGVLPVRSLLMMEDTLWAASGGQVFIISVETHAVEGQLEAHQEEGMVISHMAVSGVGIWIAFTSGSTLRLFHTETLKHLQDINIATPVHNMLPGHQRLSVTSLLVCHGLLMVGTSLGVLVALPVPRLQGIPKVTGRGMVSYHAHNSPVKFIVLATALHEKDKDKSRDSLAPGPEPQDEDQKDALPSGGAGSSLSQGDPDAAIWLGDSLGSMTQKSDLSSSSGSLSLSHGSSSLEHRSEDSTIYDLLKDPVSLRSKARRAKKAKASSALVVCGGQGHRRVHRKARQPHQEELAPTVMVWQIPLLNI [ARHGEF10]”: in the data set with HeLa Kyoto [1], the “solubility in G1/S (log2)” value is -0.0539. Moreover, the melting temperature with HeLa Kyoto [2] (cell cycle stage: G1/S) was 49.3 °C; with HeLa Kyoto [2] (cell cycle stage: mitosis), 49.8 °C. Further, the “solubility change mitosis (log2)” value with HeLa Kyoto [3] is -0.182. The values for the thermal stability score in the data set with HeLa Kyoto [4] (setting [5]) and in the data set on HeLa Kyoto [4] (cell cycle stage: mitosis) were -0.414 and 0.205, respectively.

For the sequence “MRQKHYLEAAARGLHDSCPGQARYLLWAYTSSHDDKSTFEETCPYCFQLLVLDNSRVRLKPKARLTPKIQKLLNREARNYTLSFKEAKMVKKFKDSKSVLLITCKTCNRTVKHHGKSRSFVSTLKSNPATPTSKLSLKTPERRTANPNHDMSGSKGKSPASVFRTPTSGQSVSTCSSKNTSKTKKHFSQLKMLLSQNESQKIPKVDFRNFLSSLKGGLLK [C18ORF21]”, the “solubility in G1/S (log2)” value in the data set on HeLa Kyoto [1] was -0.722. This sequence also displayed a melting temperature in the data set on HeLa Kyoto [2] (cell cycle stage: mitosis) of 46.8 °C. Also, in the data set on HeLa Kyoto [3], the “solubility change mitosis (log2)” value amounted to 2.72. Besides, the thermal stability score with HeLa Kyoto [4] (setting [5]) is -0.862; in the data set on HeLa Kyoto [4] (cell cycle stage: mitosis), -0.417.

“MRRKEKRLLQAVALVLAALVLLPNVGLWALYRERQPDGTPGGSGAAVAPAAGQGSHSRQKKTFFLGDGQKLKDWHDKEAIRRDAQRVGNGEQGRPYPMTDAERVDQAYRENGFNIYVSDKISLNRSLPDIRHPNCNSKRYLETLPNTSIIIPFHNEGWSSLLRTVHSVLNRSPPELVAEIVLVDDFSDREHLKKPLEDYMALFPSVRILRTKKREGLIRTRMLGASVATGDVITFLDSHCEANVNWLPPLLDRIARNRKTIVCPMIDVIDHDDFRYETQAGDAMRGAFDWEMYYKRIPIPPELQKADPSDPFESPVMAGGLFAVDRKWFWELGGYDPGLEIWGGEQYEISFKVWMCGGRMEDIPCSRVGHIYRKYVPYKVPAGVSLARNLKRVAEVWMDEYAEYIYQRRPEYRHLSAGDVAVQKKLRSSLNCKSFKWFMTKIAWDLPKFYPPVEPPAAAWGEIRNVGTGLCADTKHGALGSPLRLEGCVRGRGEAAWNNMQVFTFTWREDIRPGDPQHTKKFCFDAISHTSPVTLYDCHSMKGNQLWKYRKDKTLYHPVSGSCMDCSESDHRIFMNTCNPSSLTQQWLFEHTNSTVLEKFNRN [GALNT10]”: the “solubility in G1/S (log2)” value in the data set with HeLa Kyoto [1] was -0.106. Also, the melting temperature in the data set on HeLa Kyoto [2] (cell cycle stage: G1/S) stood at 49.9 °C; in the data set with HeLa Kyoto [2] (cell cycle stage: mitosis) it was 52.5 °C. Also, in the data set with HeLa Kyoto [3], the “solubility change mitosis (log2)” value is -0.0786. The thermal stability score amounted to 0.401 with HeLa Kyoto [4] (setting [5]) and 0.507 in the data set on HeLa Kyoto [4] (cell cycle stage: mitosis).

Turning to “MRRLPRALLLQLRLALLVAAGAPEVLVSAPRSLVWGPGLQAAVVLPVRYFYLQAVNSEGQNLTRSPAGETPFKVVVKSLSPKELVRIHVPKPLDRNDGTFLMRYRMYETVDEGLKIEVLYGDEHVAQSPYILKGPVYHEYCECPEDPQAWQKTLSCPTKEPQIAKDFASFPSINLQQMLKEVPKRFGDERGAIVHYTILNNHVYRRSLGKYTDFKMFSDEILLSLTRKVLLPDLEFYVNLGDWPLEHRKVNGTPSPIPIISWCGSLDSRDVVLPTYDITHSMLEAMRGVTNDLLSIQGNTGPSWINKTERAFFRGRDSREERLQLVQLSKENPQLLDAGITGYFFFQEKEKELGKAKLMGFFDFFKYKYQVNVDGTVAAYRYPYLMLGDSLVLKQDSPYYEHFYMALEPWKHYVPIKRNLSDLLEKVKWAKENDEEAKKIAKEGQLMARDLLQPHRLYCYYYQVLQKYAERQSSKPEVRDGMELVPQPEDSTAICQCHRKKPSREEL [KDELC2]”, the “solubility in G1/S (log2)” value with HeLa Kyoto [1] turned out to be 0.282. For the same sequence, the melting temperature with HeLa Kyoto [2] (cell cycle stage: G1/S) was 53.8 °C; in the data set on HeLa Kyoto [2] (cell cycle stage: mitosis) it was 54.9 °C. For the same sequence, in the data set with HeLa Kyoto [3], the “solubility change mitosis (log2)” value was -0.048. Moreover, the figures for the thermal stability score in the data set with HeLa Kyoto [4] (setting [5]) and with HeLa Kyoto [4] (cell cycle stage: mitosis) were 4.98 and 4.71, respectively.
